Test results as given in patent publication US10941182 (Amgen, dated 2021).
Starred links: 1 amine or outer side, 2 acyl side, 3 side chain; linkers in the order of their positions; H or OH if unused. Non-standard residues stand in square brackets, D forms with d. *: point of attachment. dBip = N[C@H](Cc1ccc(-c2ccccc2)cc1)C(=O)O; Oic = O=C(O)[C@@H]1C[C@@H]2CCCC[C@@H]2N1; Phe(4-I) = N[C@@H](Cc1ccc(I)cc1)C(=O)O; γGlu = O=C(O)[C@H](CCC(=O)[*:2])N[*:1]; d1Nal = N[C@H](Cc1cccc2ccccc12)C(=O)O; Tridecanoyl = CCCCCCCCCCCCC(=O)*; hArg = N=C(N)NCCCC[C@H](N)C(=O)O; NMeL = CN[C@@H](CC(C)C)C(=O)O; Tle = CC(C)(C)[C@H](N)C(=O)O; AEEA = NCCOCCOCC(=O)O; BLeu = β-leucine; βAla = NCCC(=O)O

T1: human APJ receptor (human, UniProt P35414 1-380)
T1 sequence (looked up): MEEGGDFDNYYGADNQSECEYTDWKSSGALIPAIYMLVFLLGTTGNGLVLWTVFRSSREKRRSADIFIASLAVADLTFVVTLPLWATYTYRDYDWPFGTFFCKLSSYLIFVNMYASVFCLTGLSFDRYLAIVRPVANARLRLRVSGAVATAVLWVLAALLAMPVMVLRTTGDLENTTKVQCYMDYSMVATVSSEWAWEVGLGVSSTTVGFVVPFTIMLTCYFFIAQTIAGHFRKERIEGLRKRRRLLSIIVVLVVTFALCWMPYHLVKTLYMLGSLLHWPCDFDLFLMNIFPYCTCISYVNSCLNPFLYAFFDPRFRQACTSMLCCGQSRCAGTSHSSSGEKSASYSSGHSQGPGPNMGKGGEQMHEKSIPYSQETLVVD

T2: rat APJ receptor (rat, UniProt Q9JHG3 1-377)
T2 sequence (looked up): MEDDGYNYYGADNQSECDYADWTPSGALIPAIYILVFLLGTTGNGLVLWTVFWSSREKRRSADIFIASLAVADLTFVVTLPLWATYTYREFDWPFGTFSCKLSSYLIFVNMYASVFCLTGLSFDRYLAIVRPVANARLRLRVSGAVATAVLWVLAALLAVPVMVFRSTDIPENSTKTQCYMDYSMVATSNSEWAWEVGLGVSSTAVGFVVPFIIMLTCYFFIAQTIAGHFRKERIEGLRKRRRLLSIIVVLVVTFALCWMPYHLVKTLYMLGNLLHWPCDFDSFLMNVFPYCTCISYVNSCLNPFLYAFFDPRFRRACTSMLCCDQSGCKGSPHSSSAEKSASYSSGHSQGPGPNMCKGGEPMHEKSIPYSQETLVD


How the values were obtained:
human APJ receptor = target: T1, human APJ receptor; experiment: cell-based or functional assay
rat APJ receptor = target: T2, rat APJ receptor; experiment: cell-based or functional assay

| Binder | EC50 Human APJ Receptor (human APJ receptor) | EC50 Rat APJ Receptor (rat APJ receptor) |
| --- | --- | --- |
| Tridecanoyl-[γGlu][AEEA][AEEA]RQRP[dR][NMeL]SHKG[Oic][Phe(4-I)]P[dBip]-OH (SMILES CCCCCCCCCCCCC(=O)N[C@@H](CCC(=O)NCCOCCOCC(=O)NCCOCCOCC(=O)N[C@@H](CCCNC(=N)N)C(=O)N[C@@H](CCC(N)=O)C(=O)N[C@@H](CCCNC(=N)N)C(=O)N1CCC[C@H]1C(=O)N[C@H](CCCNC(=N)N)C(=O)N(C)[C@@H](CC(C)C)C(=O)N[C@@H](CO)C(=O)N[C@@H](Cc1c[nH]cn1)C(=O)N[C@@H](CCCCN)C(=O)NCC(=O)N1[C@H](C(=O)N[C@@H](Cc2ccc(I)cc2)C(=O)N2CCC[C@H]2C(=O)N[C@H](Cc2ccc(-c3ccccc3)cc2)C(=O)O)C[C@@H]2CCCC[C@@H]21)C(=O)O) [apelin polypeptide SEQ ID NO: 211] | 1.9 nM | 6.29 nM |
| Tridecanoyl-[γGlu][AEEA][AEEA][dR]QRP[hArg][NMeL]SHKG[Oic][Phe(4-I)]P[dBip]-OH (SMILES CCCCCCCCCCCCC(=O)N[C@@H](CCC(=O)NCCOCCOCC(=O)NCCOCCOCC(=O)N[C@H](CCCNC(=N)N)C(=O)N[C@@H](CCC(N)=O)C(=O)N[C@@H](CCCNC(=N)N)C(=O)N1CCC[C@H]1C(=O)N[C@@H](CCCCNC(=N)N)C(=O)N(C)[C@@H](CC(C)C)C(=O)N[C@@H](CO)C(=O)N[C@@H](Cc1c[nH]cn1)C(=O)N[C@@H](CCCCN)C(=O)NCC(=O)N1[C@H](C(=O)N[C@@H](Cc2ccc(I)cc2)C(=O)N2CCC[C@H]2C(=O)N[C@H](Cc2ccc(-c3ccccc3)cc2)C(=O)O)C[C@@H]2CCCC[C@@H]21)C(=O)O) [apelin polypeptide SEQ ID NO: 213] | 0.647 nM | 1.17 nM |
| Tridecanoyl-[γGlu][AEEA][AEEA][hArg][dQ][hArg]P[dR][NMeL]S[Tle]KG[Oic][Phe(4-I)]P[dBip]-OH (SMILES CCCCCCCCCCCCC(=O)N[C@@H](CCC(=O)NCCOCCOCC(=O)NCCOCCOCC(=O)N[C@@H](CCCCNC(=N)N)C(=O)N[C@H](CCC(N)=O)C(=O)N[C@@H](CCCCNC(=N)N)C(=O)N1CCC[C@H]1C(=O)N[C@H](CCCNC(=N)N)C(=O)N(C)[C@@H](CC(C)C)C(=O)N[C@@H](CO)C(=O)N[C@H](C(=O)N[C@@H](CCCCN)C(=O)NCC(=O)N1[C@H](C(=O)N[C@@H](Cc2ccc(I)cc2)C(=O)N2CCC[C@H]2C(=O)N[C@H](Cc2ccc(-c3ccccc3)cc2)C(=O)O)C[C@@H]2CCCC[C@@H]21)C(C)(C)C)C(=O)O) [apelin polypeptide SEQ ID NO: 201] | 49.4 nM | 182 nM |
| Tridecanoyl-[γGlu][AEEA][AEEA][dR]Q[hArg]P[dR][NMeL]SHKG[Oic][Phe(4-I)][dBip]-OH (SMILES CCCCCCCCCCCCC(=O)N[C@@H](CCC(=O)NCCOCCOCC(=O)NCCOCCOCC(=O)N[C@H](CCCNC(=N)N)C(=O)N[C@@H](CCC(N)=O)C(=O)N[C@@H](CCCCNC(=N)N)C(=O)N1CCC[C@H]1C(=O)N[C@H](CCCNC(=N)N)C(=O)N(C)[C@@H](CC(C)C)C(=O)N[C@@H](CO)C(=O)N[C@@H](Cc1c[nH]cn1)C(=O)N[C@@H](CCCCN)C(=O)NCC(=O)N1[C@H](C(=O)N[C@@H](Cc2ccc(I)cc2)C(=O)N[C@H](Cc2ccc(-c3ccccc3)cc2)C(=O)O)C[C@@H]2CCCC[C@@H]21)C(=O)O) [apelin polypeptide SEQ ID NO: 173] | 1.66 nM | 13.7 nM |
| Tridecanoyl-[γGlu][AEEA][AEEA][dR]Q[hArg]P[dR][NMeL]SHKG[Oic][Phe(4-I)]P[d1Nal]-OH (SMILES CCCCCCCCCCCCC(=O)N[C@@H](CCC(=O)NCCOCCOCC(=O)NCCOCCOCC(=O)N[C@H](CCCNC(=N)N)C(=O)N[C@@H](CCC(N)=O)C(=O)N[C@@H](CCCCNC(=N)N)C(=O)N1CCC[C@H]1C(=O)N[C@H](CCCNC(=N)N)C(=O)N(C)[C@@H](CC(C)C)C(=O)N[C@@H](CO)C(=O)N[C@@H](Cc1c[nH]cn1)C(=O)N[C@@H](CCCCN)C(=O)NCC(=O)N1[C@H](C(=O)N[C@@H](Cc2ccc(I)cc2)C(=O)N2CCC[C@H]2C(=O)N[C@H](Cc2cccc3ccccc23)C(=O)O)C[C@@H]2CCCC[C@@H]21)C(=O)O) [apelin polypeptide SEQ ID NO: 155] | 8.62 nM | 49.6 nM |
| Ac-[hArg][dR]Q[hArg]P[dR][NMeL]SHKG[Oic][Phe(4-I)]P[dBip]-OH (SMILES CC(=O)N[C@@H](CCCCNC(=N)N)C(=O)N[C@H](CCCNC(=N)N)C(=O)N[C@@H](CCC(N)=O)C(=O)N[C@@H](CCCCNC(=N)N)C(=O)N1CCC[C@H]1C(=O)N[C@H](CCCNC(=N)N)C(=O)N(C)[C@@H](CC(C)C)C(=O)N[C@@H](CO)C(=O)N[C@@H](Cc1c[nH]cn1)C(=O)N[C@@H](CCCCN)C(=O)NCC(=O)N1[C@H](C(=O)N[C@@H](Cc2ccc(I)cc2)C(=O)N2CCC[C@H]2C(=O)N[C@H](Cc2ccc(-c3ccccc3)cc2)C(=O)O)C[C@@H]2CCCC[C@@H]21) [apelin polypeptide SEQ ID NO: 16] | 0.375 nM | 0.729 nM |
| Tridecanoyl-[γGlu][AEEA][AEEA][hArg][dQ][hArg]P[dR][NMeL]SHKG[Oic][Phe(4-I)][dBip]-OH (SMILES CCCCCCCCCCCCC(=O)N[C@@H](CCC(=O)NCCOCCOCC(=O)NCCOCCOCC(=O)N[C@@H](CCCCNC(=N)N)C(=O)N[C@H](CCC(N)=O)C(=O)N[C@@H](CCCCNC(=N)N)C(=O)N1CCC[C@H]1C(=O)N[C@H](CCCNC(=N)N)C(=O)N(C)[C@@H](CC(C)C)C(=O)N[C@@H](CO)C(=O)N[C@@H](Cc1c[nH]cn1)C(=O)N[C@@H](CCCCN)C(=O)NCC(=O)N1[C@H](C(=O)N[C@@H](Cc2ccc(I)cc2)C(=O)N[C@H](Cc2ccc(-c3ccccc3)cc2)C(=O)O)C[C@@H]2CCCC[C@@H]21)C(=O)O) [apelin polypeptide SEQ ID NO: 174] | 3.6 nM | 16.5 nM |
| Tridecanoyl-[γGlu][AEEA][AEEA][hArg][dQ][hArg]P[dR][NMeL]SAKG[Oic][Phe(4-I)]P[dBip]-OH (SMILES CCCCCCCCCCCCC(=O)N[C@@H](CCC(=O)NCCOCCOCC(=O)NCCOCCOCC(=O)N[C@@H](CCCCNC(=N)N)C(=O)N[C@H](CCC(N)=O)C(=O)N[C@@H](CCCCNC(=N)N)C(=O)N1CCC[C@H]1C(=O)N[C@H](CCCNC(=N)N)C(=O)N(C)[C@@H](CC(C)C)C(=O)N[C@@H](CO)C(=O)N[C@@H](C)C(=O)N[C@@H](CCCCN)C(=O)NCC(=O)N1[C@H](C(=O)N[C@@H](Cc2ccc(I)cc2)C(=O)N2CCC[C@H]2C(=O)N[C@H](Cc2ccc(-c3ccccc3)cc2)C(=O)O)C[C@@H]2CCCC[C@@H]21)C(=O)O) [apelin polypeptide SEQ ID NO: 199] | 8.48 nM | 32.4 nM |
| Tridecanoyl-[γGlu][AEEA][AEEA][hArg]Q[dR]P[dR][NMeL]SHKG[Oic][Phe(4-I)][dBip]-OH (SMILES CCCCCCCCCCCCC(=O)N[C@@H](CCC(=O)NCCOCCOCC(=O)NCCOCCOCC(=O)N[C@@H](CCCCNC(=N)N)C(=O)N[C@@H](CCC(N)=O)C(=O)N[C@H](CCCNC(=N)N)C(=O)N1CCC[C@H]1C(=O)N[C@H](CCCNC(=N)N)C(=O)N(C)[C@@H](CC(C)C)C(=O)N[C@@H](CO)C(=O)N[C@@H](Cc1c[nH]cn1)C(=O)N[C@@H](CCCCN)C(=O)NCC(=O)N1[C@H](C(=O)N[C@@H](Cc2ccc(I)cc2)C(=O)N[C@H](Cc2ccc(-c3ccccc3)cc2)C(=O)O)C[C@@H]2CCCC[C@@H]21)C(=O)O) [apelin polypeptide SEQ ID NO: 175] | 1.32 nM | 8.54 nM |
| Tridecanoyl-[γGlu][AEEA][AEEA][hArg][dQ][hArg]P[dR][BLeu]SHKG[Oic][Phe(4-I)]P[dBip]-OH [apelin polypeptide SEQ ID NO: 180] | 10 nM | 27.3 nM |
| Tridecanoyl-[γGlu][AEEA][AEEA][hArg][dQ][hArg]P[dR][NMeL][βAla]HKG[Oic][Phe(4-I)]P[dBip]-OH (SMILES CCCCCCCCCCCCC(=O)N[C@@H](CCC(=O)NCCOCCOCC(=O)NCCOCCOCC(=O)N[C@@H](CCCCNC(=N)N)C(=O)N[C@H](CCC(N)=O)C(=O)N[C@@H](CCCCNC(=N)N)C(=O)N1CCC[C@H]1C(=O)N[C@H](CCCNC(=N)N)C(=O)N(C)[C@@H](CC(C)C)C(=O)NCCC(=O)N[C@@H](Cc1c[nH]cn1)C(=O)N[C@@H](CCCCN)C(=O)NCC(=O)N1[C@H](C(=O)N[C@@H](Cc2ccc(I)cc2)C(=O)N2CCC[C@H]2C(=O)N[C@H](Cc2ccc(-c3ccccc3)cc2)C(=O)O)C[C@@H]2CCCC[C@@H]21)C(=O)O) [apelin polypeptide SEQ ID NO: 208] | 28.9 nM | 104 nM |
